Experiments:
[1] = biological target: T1, SARS-CoV-2 receptor-binding domain (RBD), S protein residues 319-539 (SARS-CoV-2, GenBank MN985325.1 …, UniProt P0DTC2); experiment: cryo-EM structure
[2] = biological target: T2, BM-4831-CoV RBD, residues 310-530 (Bat coronavirus BM48-31/BGR/2008, strain); experiment: ELISA
[3] = biological target: T3, SARS-CoV RBD, residues 318-510 (SARS-CoV (GenBank AAP13441.1), UniProt P59594); experiment: ELISA
[4] = biological target: T1, SARS-CoV-2 receptor-binding domain …; experiment: ELISA
[5] = biological target: Rf1-CoV RBD, residues 310-515 (Bat SARS CoV Rf1/2004, UniProt Q0QDZ0, strain); experiment: ELISA
[6] = biological target: Rp3-CoV RBD, residues 322-504 (Bat coronavirus Rp3/2004, UniProt Q3I5J5); experiment: ELISA
[7] = biological target: W1V1-CoV RBD, residues 307-528 (Bat SARS-like coronavirus WIV1 (printed …, UniProt U5WI05)); experiment: ELISA
[8] = biological target: Rs4081-CoV RBD, residues 310-515 (Bat SARS-like coronavirus Rs4081, UniProt A0A2D1PX44, strain); experiment: ELISA
[9] = biological target: RaTG13-CoV RBD, residues 319-541 (Bat coronavirus RaTG13, UniProt A0ABF7PLN6, strain); experiment: ELISA
[10] = biological target: pangolin17-CoV RBD, residues 317-539 (Pangolin coronavirus (pangolin17), strain); experiment: ELISA
[11] = biological target: Rs7327-CoV RBD, residues 319-518 (Bat SARS-like coronavirus Rs7327, UniProt A0A2D1PXC0, strain); experiment: ELISA
[12] = biological target: Shaanxi2011-CoV RBD, residues 321-502 (Bat coronavirus Rp/Shaanxi2011, UniProt R9QTA0, strain); experiment: ELISA
[13] = biological target: ZC45-CoV RBD, residues 327-509 (Bat SARS-like coronavirus ZC45, UniProt A0A2R3SUW7, strain); experiment: ELISA
[14] = biological target: Rs4092-CoV RBD, residues 314-496 (Bat SARS-like coronavirus Rs4092, UniProt A0A2D1PX37, strain); experiment: ELISA
[15] = biological target: HKU3-1-CoV RBD, residues 322-505 (Bat coronavirus HKU3, isolate HKU3-1, UniProt Q3LZX1, strain); experiment: ELISA
[16] = biological target: BtkY72-CoV RBD, residues 309-530 (Bat sarbecovirus BtKY72, UniProt A0A3Q8AKM0); experiment: ELISA
[17] = biological target: Yun11-CoV RBD, residues 310-515 (Bat coronavirus Cp/Yunnan2011, UniProt R9QTH3); experiment: ELISA
[18] = biological target: YN2013-CoV RBD, residues 314-496 (BtRs-BetaCoV/YN2013, UniProt A0A0U1WJY8, strain); experiment: ELISA
[19] = biological target: SHC014-CoV RBD, residues 307-524 (Bat SARS-like coronavirus RsSHC014, UniProt U5WLK5, strain); experiment: ELISA
[20] = biological target: T2, BM-4831-CoV RBD, residues 310-530; experiment: SPR
[21] = biological target: T3, SARS-CoV RBD, residues 318-510; experiment: SPR
[22] = biological target: T1, SARS-CoV-2 receptor-binding domain …; experiment: SPR
[23] = biological target: SARS-CoV-2 spike receptor-binding domain (RBD) used in the crystallographic study (SARS-CoV-2, UniProt P0DTC2); experiment: crystal structure

B1: psNb 2-67 (VHH)
VHH: EVQLVESGGGLVQTGGSLRLSCALSGYTFSIFPTAWFRQAPGKEREFVAGIRWNGSTRDYTEYADFVKGRFTISRDNAKNMVYLQMISLKPEDTALYYCAASDGVIDGTNANAYRYWGQGTQVTVSS
binds: binding result [1]

B2: psNb 1-22 (VHH)
VHH: HVQLVESGGGLVQPGGSLRLSCAASGRSFNSYLMGWFRQAPGKEREFVAWISGSPHDIIRYRDSVKDRFTISRDNAKNTVYLQMNSLKPVDTAVYYCAVGSLRVGSFSPDYWGQGTQVTVSS
binds: binding result [2] | binding result [3] | binding result [4]

B3: psNb 2-65 (VHH)
VHH: HVQLVESGGGLVQAGGSLRLSCAASGTISTLNAMGWYRQAPGKQRELLASISNLGTTYHADSVAGRFTISRGSAKNTVNLQMNSLKPDDTAVYYCNTRVLEGGTQIRDYWGQGTQVTVSS
binds: binding result [2] | binding result [4]

B4: psNb 1-23 (VHH)
VHH: QVQLVESGGGLVQAGGSLRLSCAASGRTDSISDMGWFRQAPGKEREFVAVVGWSGGGTDYAHSVKGRFTISRDNAKNTVYLQMNSLKPEDTAVYYCAVGSLRVGSFSVEYWGQGTQVTVSS
binds: binding result [2] | binding result [3] | binding result [4]

B5: psNb 2-34 (VHH)
VHH: HVQLVESGGGLVQAGGSLRLSCAASGRTFSRYAAGWFRQAPGKEREFVAVIEWDGDSAYYADPVKGRFTISRDNAKNTVYLQMNRLKPEDTAVYICAVGGNHYSRSKYYNLDEYDDWGQGTQVTVSS
binds: binding result [5] | binding result [6] | binding result [7] | binding result [8] | binding result [9] | binding result [10] | binding result [2] | binding result [11] | binding result [3] | binding result [12] | binding result [13] | binding result [14] | binding result [15] | binding result [4] | binding result [16] | binding result [17] | binding result [18] | binding result [19]

B6: psNb 1-25 (VHH)
VHH: HVQLVESGGGLVQAGGSLRLSCATSGRTFSTYRMSWFRQAPGKEREFVATIIWSVGSTHYADSVKGRFTISRDNAKNMVYLQMNSLKPEDTAVYYCAAQRSDSSSWGYEDDYDYWGQGTQVTVSS
binds: binding result [1]

B7: psNb 2-10 (VHH)
VHH: QVQLVESGGGLVQPGGSLRLSCAASGFTFNRYAMSWVRQAPGKGREWVSGIYSDGSETYYTESVKGRFTISRDNAKNMLYLQMNSLKPEDTALYYCAKDENAHEDYFNSGFDRKYDYWGQGTQVTVSS
binds: binding result [1]

B8: psNb 2-31 (VHH)
VHH: QVQLVESGGGLVQAGESLRLSCAASKPTFRNFAAGWFRQTPGKDREFVAVIEYDGDSAYYADSVKGRFTISRDNAKNTVYLQMNRLKPGDTAVYICAIGGNHYDPSKYYTADEYDYWGQGTQVTVSS
0.00396 nM: Kd [21]
< 0.001 nM: Kd [22]
3.6 nM: Kd [20]
binds: binding result [5] | binding result [6] | binding result [7] | binding result [8] | binding result [9] | binding result [10] | binding result [11] | binding result [12] | binding result [13] | binding result [14] | binding result [15] | binding result [16] | binding result [17] | binding result [18] | binding result [19]

B9: psNb 2-38 (VHH)
VHH: QVQLVESGGGLVQAGGSLRLSCAAAARFSTSAMGWFRQAPGKEREFVAAISWSNTNTHYADTVKGRFTISADTAKETVDLQMNSLKPEDTAVYYCVQGGWGIRQPIIVDYWGKGTQVTVSS
binds: binding result [2] | binding result [3] | binding result [4]

B10: psNb 1-21 (VHH)
VHH: HVQLVESGGGLVQAGGSLRLSCAAPGRTFSTSAMGWFRQAPGKEREFVAAIDWSNTNIHYADTVKGRFTISTDTAKNTVYLQMNNLKPEDTAVYYCAQGGWGLTQPISVDYWGKGTQVTVSS
binds: binding result [3] | binding result [4] | binding result [23]

B11: psNb 2-62 (VHH)
VHH: QVQLVESGGGLVQAGGSLRLSCAASGRTFSTYAMAWFRQAPGKEREFVAGVARSADTTYYGDSVKGRFTISRDNAKNEVNLQMSSLKPEDTAVYYCAARSVIQYGIVPGNDFHYEYWGQGTQVTVSS
binds: binding result [1]

B12: psNb 2-45 (VHH)
VHH: QVQLVESGGGLVQAGGSLRLSCTASGYDFSILAIAWYRQAPGKERELVAAISRVGSTDYADSVKGRFTISRDNTKNTVSLQMDSLKPEDTAVYYCNAGIPMTTVLSGLGFWGQGTQVTVSS
0.39 nM: Kd [22]
0.044 nM: Kd [20]
binds: binding result [5] | binding result [6] | binding result [7] | binding result [8] | binding result [9] | binding result [10] | binding result [11] | binding result [12] | binding result [13] | binding result [14] | binding result [15] | binding result [16] | binding result [17] | binding result [18] | binding result [19]
304 nM: Kd [21]

Source: publication doi:10.1101/2021.12.26.474192 (bioRxiv, 2021)
